Two molecules from paper PMC3424247, “The Crystal Structures of the Tryparedoxin-Tryparedoxin Peroxidase Couple Unveil the Structural Determinants of Leishmania Detoxification Pathway” (PLoS Neglected Tropical Diseases, 2012) can be followed below.

What is called stoichiometry N is the number of molecules, sites or subunits per partner or assembly. The Kd is a measure of binding affinity in units of concentration. Broadly, the koff is the rate constant with which the complex falls apart.

Series [1] has as its target tryparedoxin-dependent peroxidase from Leishmania major (Leishmania major). Put plainly: crystal structure; LmTXNPx about 12 mg/mL with 50 mM DTT, 22-26% PEG3350, 100 mM Bis-tris propane pH 8.0, 0.2 M KSCN, 293 K; five molecules per asymmetric unit, decamer from two adjacent asymmetric units; 3.0 Å.
The target of series [2] is cytosolic tryparedoxin from Leishmania major (Leishmania major) (UniProt E9ADX4). Put plainly: SPR; as a6 but HBS-P buffer + 1 mM dithiotreitol (reducing conditions); LmTXNPx 40 nM-5 µM; for the dissociation rate DTT was added after 2080 s to the complex formed in HBS-P. On the technique in general: In SPR one partner is held on a chip, and binding of the other changes the refractive index at the surface.

Series [3] shares this target. As to the kind of experiment: SPR; as a6 but HBS-P buffer + 30 mM H2O2 (oxidizing conditions); LmTXNPx 80 nM-10 µM.
Series [4] concerns the target tryparedoxin-dependent peroxidase from Leishmania major (Leishmania major). Put plainly: native gel or EMSA; Novex 4-12% Tris-Glycine non-denaturing gels; LmTXNPx 0.5 mg/mL with H2O2 (300, 30, 3 mM) or DTT (50, 5, 1 mM). On the technique in general: In EMSA bound probe runs differently from free probe, usually more slowly.
The target of series [5] is cytosolic tryparedoxin from Leishmania major (Leishmania major) (UniProt E9ADX4). As to the kind of experiment: SPR; BIACORE X, CM5 chip; LmTXN immobilised by amine coupling (about 1000 RU), LmTXNPx flowed over (40 nM-4.0 µM); 298 K; HBS-P buffer (10 mM HEPES pH 7.4, 0.15 M NaCl, 0.005% P-20); 30 µL/min; Scatchard analysis of Req.
Series [6] concerns the molecule itself. As to the kind of experiment: crystal structure; LmTXN about 8 mg/mL, hanging drop, 293 K, 20-24% PEG 3350, 100 mM Tris-HCl pH 8.5, 50 mM MgCl2; one molecule per asymmetric unit, dimer by crystallographic two-fold; 1.8 Å.

Take “tryparedoxin-dependent peroxidase from Leishmania major (enzyme)”: the stoichiometry N in series [1] and in series [4] was 10 throughout. Further, the Kd was > 20 µM in series [2], > 20 µM in series [3] and 1.1 µM in series [5]. Also, the koff was 0.009 s⁻¹ in series [2], > 0.1 s⁻¹ in series [3] and 5e-05 s⁻¹ in series [5].

B1: cytosolic tryparedoxin from Leishmania major (enzyme, UniProt E9ADX4 1-145, looked up)
chain: MSGVAKHLGEALKLRKQADTADMDSLSGKTVFFYFSASWCPPCRGFTPQLVEFYEKHHDSKNFEIILASWDEEEDDFNAYYAKMPWLSIPFANRNIVEALTKKYSVESIPTLIGLNADTGDTVTTRARHALTQDPMGEQFPWRDE
notes: cytosolic tryparedoxin (TXN1) of Leishmania major, gene amplified from L. major DNA with primers that hold the start (CATATG) and the stop codon; residues 2-145 seen in the crystal; Cloned between NdeI and HindIII of pET28b; the tag is probably N-terminal and thrombin probably leaves a few vector residues (surmised); Monomer-dimer equilibrium in solution, mostly monomer; also called LmTXN; TXN; …
Consider B1, for which the “stoichiometry N” value in series [6] was 2.
